# Experimental data reported in the DeepSol protein solubility set.
# Assay: soluble on expression in E. coli; label from the status in PepcDB or PDB records
row,Sequence,soluble on expression in E. coli
1,MNYKSCFDIIGPIMIGPSSSHTAGALAIGLAARKLFGGTPEKIVIKYYESFADTHKGHGTDFAIIGGILGLAADDANVTQSIELAEEQGIEIQFLEMSEESPVKHANTACVTLSDATHEIHLTGISVGGGTIEVKYIELDGFNVQLHGPLPILLVINQEEQAMQAFKDTLQKNNIQVNAVSRYVEGNQILFIFDLDSAPISSVKEQLFSLDDTSKIILL,not soluble
2,MSLDFNTLAQNFTQFYYNQFDTDRSQLGNLYRNESMLTFETSQLQGAKDIVEKLVSLPFQKVQHRITTLDAQPASPYGDVLVMITGDLLIDEEQNPQRFSQVFHLIPDGNSYYVFNDIFRLNYSA,soluble
3,MSLVTIVAPMDEILERAHVVALPMRVKFRGIMVREAVLFDGPKGWGEFSPFVEYGVQEAAQWLRCGLEMAFQGPPPMIRDAVEVNATIPAVSPDQVPEILARYPGCTTVKVKVAEGDDAARVAMVREVLPDARIRVDANRGWTVDQAVAASKHLGELEYMEQPCASVAELAELRRRISVPIAADESIRRVSDPYEVARLHAADVAVVKAAPLGGPRNIVDIAKFYQQRGLSLTVASALDTGVGMNAGIAVAAAIDSNPAGLATQRLFVEDVTEPRTIVDGKMSVEMLAPDPARLAEFEVTGPRRDWWLDRVRGALECLHDFIPEGHHHHHH,not soluble
4,MAKKVRSVHECSECGYSSPKWLGRCPECGSWGSMEERTVGESGGAARAAVSGAAPAGLTPTSPAVPIGKIVASQATSISTGIGELDRVLGNGIVPGSVVLMAGEPGVGKSTLLLEVASRWASMKEGDGTRTALYVTAEESAGQVRLRAERTAAVKDTLYLAAESNLDVVFGHVNQVKPSLLIVDSVQTMHAAGVEGVAGGVAQSRAVTAALTTLAKTSGIPILLVGHVTKDGNVAGPRVLEHLVDVVLNFEGDRHSSLRMLRGIKNRFGATDEVGCFEQQSDGIKEVPDPSGLFLSHRGSTPDGTAVTVAMDGVRPLLAEVQSLLVDAPSKNPRRVVTGLDANRVPMVLAVLSARAGRQTQGKDAYVATVGGMKVGEPATDLAVALATASALAKKPLPDKTVVLGEVGLAGEIRRVPNVDRRLAEAERLGYEKAVIPGGSGIKQTSLRVIEASTLAEALAAVSLLEHHHHHH,not soluble
5,VLQTRNYTCGPAALVTVLQRLGVNTTEDELAGLAGTTEDGTTMQGLLEASRAKGVNATGMKLNISELKENMIAYTINDGTGHYTVINGITNDTVKLADPSLGNIEMNIEEFTEIYSGYALVINDPNNPR,not soluble
6,MASPHQEPKPGDLIEIFRLGYEHWALYIGDGYVIHLAPPSEYPGAGSSSVFSVLSNSAEVKRERLEDVVGGCCYRVNNSLDHEYQPRPVEVIISSAKEMVGQKMKYSIVSRNCEHFVTQLRYGKSRCKQVEKAKVEVGVATALGILVVAGCSFAIRRYQKKATALEHHHHHH,not soluble
7,MGSDKIHHHHHHMAKNKALFECQACGNQQSKWLGKCPDCGAWDSFVELKAEQIKVLKELAQVSMKTSEAVCIEDVELEHFTRYSTDDNELDLVLGGGLVEGSLVLIGGSPGVGKSTLLLKIASNLAKQGKKVLYVSGEESKAQIKLRADRLEANTPNLFLLTELCLENILEELHKKDYSILIVDSIQTLYSNKITSAAGSITQVREITFELMRVSKAYNISTFIIGHITKEGAIAGPRVLEHMVDVVLYFEGDATKEIRLLRGFKNRFGGTNEVGIFEMTAKGLISAKDLANRFFTRGKAISGSALGVVMEGSRALVLEVQALVCESSYPKRSATGYEKNRLDMLLALLERKLEIPLGHYDVFVNISGGVKVSETAADLAVVAAIISSFKNRPLSKDSIFIGELSLNGEIREVFSLDTRLKEAKMQKFKNAIVPSKPLEDIGLKCFVAKELSQVLEWM,not soluble
8,MSVEASNQENSLSSFLLKCAFPAGTTPPLLSPPSSSGSYEEAQFSLFVNQNETEQKLFSNQSLANRDPCTIPDELHQEMKSLKKKEEAFKTSLCGFHRRGQKCAYGEKCKFAHSVHELRFPQTKRNHRNYKTVLCNNFSTTGHCKYGIRCQFIHRSMNSTSSNQSNKMENITIDLNVQSDVFRAFALDSTSLLPNWHCSALLQ,not soluble
9,MSLTSQITSNSPVKWKRRTRHDTCGKITLFALQKTMYFDNLSTKKHNLDNLELERSCFEISETMDSSLSIITYSMSVHSLQKNGEPMKQEKQQFIKTDWTIDMINRRQFEKYAIDILTATKDIHRGGWVERIDNKAWQYVRVYENGDIEVLITLQIIRFHKYFDTPVWLQFNPNHLLPADYVQLDHVMKYVDHSHLTRADLANDIYNINLQRYDFGLFGVTRDIYRSLSGDLETRYWGRRKSERQIRLYDKMREMKKHGKADDIPDGITDWWRLEFQFRGGKVESWQEEVEGHHHHHH,not soluble
10,TIVYDKDGDKAGELSSTDATFVSIDKISKNLQNAVVSIEDRRFYEHKGFDLKGIARAGVNLITNGGISGGGSTITQQLAKNALLTQEQTFTRKAKEIFMAREIEKTYSKDEIMEMYLNRSYFGNGEWGVENASLKYFGKPAADLNIPEAATIAGLLQAPSAYDPYQHI,not soluble
11,MRIGLFTDTYFPQVSGVATSIRTLKTQLEKMGHNVFIFTTTDRDVDRYEDWQIIRIPSVPFFAFKDRRVAYRGFSKALEIAKQYKLDIIHTQTEFSLGLLGIAIAHELKIPVVHTYHTQYEDYVRYIAKGMVIRPSMVKYIVRGFMSDLDGVICPSEIVYDLLLKYKVAAEKRVIPTGIELEKFQRPEITEEDVSDLRAKLGISSDETMLLSLSRVSYEKNIQAVMAALPSVLEEEDKVRLVVAGDGPYLPHLKSQAKKLGIEDKVVFTGMIAPGETALYYKAADFFISASTSETQGLTYLEALASGTPIIAHGNTYLDNIITDKMFGILYYHDNDLAGAILEAAIVTPEKDETKWAEKLYEISAENFGKRVYEYYLDLTISKDFHNDLNGEDSTMKRLTRMVTHLPTKAITLPVNGSVRIIKGSAKQVKKIRNIKKFLDLEHHHHHH,soluble
12,MSLMKNILAIQSHVVYGHAGNSAAEFPMRRLGANVWPLNTVQFSNHTQYGKWTGCVMPPSHLTEIVQGIAAIDKLHTCDAVLSGYLGSAEQGEHILGIVRQVKAANPQAKYFCDPVMGHPEKGCIVAPGVAEFHVRHGLPASDIIAPNLVELEILCEHAVNNVEEAVLAARELIAQGPQIVLVKHLARAGYSRDRFEMLLVTADEAWHISRPLVDFGMRQPVGVGDVTSGLLLVKLLQGATLQEALEHVTAAVYEIMVTTKAMQEYELQVVAAQDRIAKPEHYFSATKLEGGSHHHHHH,soluble
13,MGSDKIHHHHHHMSVTQIVTSEDILLKLCHSVSHVLSHTSGSRVTHAAMVQNISSTRLKPDLGCFSIFDGGFSGLVVINFSAASAVEIYRRYMLNMGMPESDLAFSHNSDEVGNVMGELMNQILGDFIGKVSKELQTSISQSQPKMLTINKEITISIDANLDEPVIRRVSFMTESNHIFYLEFAMDKTEFVKTREFELDEEFDPDFLIEQHGNTRSPWSQMAGKGIVADDADDLLDELGI,not soluble
14,EFILVQADTPSSPSIDQVEPYSSTAQVQFDEPEATGGVPILKYKAEWRAVGEEVWHSKWYDAKEASMEGIVTIVGLKPETTYAVRLAALNGKGLGEISAASEFKTQPVREPSAPKLEGQMGEDGNSIKVNLIKQDDGGSPIRHYLVRYRALSSEWKPEIRLPSGSDHVMLKSLDWNAEYEVYVVAENQQGKSKAAHFVFRTSAQPTAIPANGSPTSGL,soluble
15,MLAGHTLIESKNDHQSRRNCEFRRAIAAAGRCRRVYGGALPLLASSVPMSVRMDTRHRQKQALAQTAATMIEPGEFIFLDSGSTNLALIDFLPKGYDLTLATNSIDIAGAALRGQDLKLIMLGGTVDLAVGGCVDATAIGSLAQMNIDRSFIGVCSVSPTFGLSAFDIADATFKRALVAASGYTIALATTDKLEVRAPHRVSEINEIDCLVLEHDAPISHLDDLVRAGASIVKALQPFAAALEHHHHHH,not soluble
16,MADDLNAGPKANREFKNSVFTLLFNEEEAIRDISGAVGAMLGKEISPNTPIKKTTLQNALLGGKLNDLSFVLDDKLIVLIEHQSTINKNMPLRMLHYICEIYNHLYEKKDLYRKKKILIPKPVFIVLYNGEEDIKDFEEYLLSDLFKDFDISKEQPYLELRVQVRNINKGHSAEIVKQSPLLLDYVAFVEEVREVNKEEGMTPELAMEKAIENCIKKGILTVFLTRHKEEVMKMLVAEWDYDLDREVARDEGREEGREEGRTEETANNIKDLYRIGVSIETIAKAFGLSEHDVKDILGL,soluble
